In PMC11180167:

What was measured:
[1] = target: ryanodine receptor 1 (RyR1) in porcine skeletal SR membranes (pig (endogenous in porcine skeletal muscle SR)) (UniProt P16960); assay: co-sedimentation; 1-60 nM AF488-FKBP12.6 with SR membranes (0.02 mg/ml skeletal, 0.12 mg/mL cardiac), 90 min at 37 °C, 150 mM KCl, 20 mM K-PIPES pH 7.0, 5 mM GSH, 0.1 mg/ml BSA, 30 nM free Ca2+; bound and free separated at 100,000 x g; non-specific binding with 5 µM unlabeled FKBP12.6 (skeletal) or 20 µM tacrolimus (cardiac); bound AF488 read by fluorescence
[2] = target: cardiac muscle ryanodine receptor RyR2 in porcine cardiac SR membranes (pig (endogenous in porcine cardiac SR membranes)); assay: co-sedimentation; cardiac SR membranes (0.12 mg/mL) incubated 90 min at 37 °C with 1-60 nM AF488-FKBP12.6 in 150 mM KCl, 20 mM K-PIPES pH 7.0, 5 mM GSH, 0.1 mg/ml BSA, 1 mM EGTA, 65 µM CaCl2 (30 nM free Ca2+); non-specific binding with 20 µM tacrolimus; bound and free separated at 100,000 x g for 25 min; fluorescence of the pellet; Kd from Hill fit, n = 5
[3] = target: skeletal muscle ryanodine receptor RyR1 in porcine skeletal SR membranes (pig (endogenous in porcine skeletal SR membranes)) (UniProt P16960); assay: co-sedimentation; skeletal SR membranes (0.02 mg/ml) incubated 90 min at 37 °C with 1-60 nM AF488-FKBP12.6 in 150 mM KCl, 20 mM K-PIPES pH 7.0, 5 mM GSH, 0.1 mg/ml BSA, 1 mM EGTA, 65 µM CaCl2 (30 nM free Ca2+); non-specific binding with 5 µM unlabeled FKBP12.6; bound and free separated at 100,000 x g for 25 min; fluorescence of the pellet; Kd from Hill fit, n = 3
[4] = target: ryanodine receptor 1 (RyR1) in porcine skeletal SR membranes (pig (endogenous in porcine skeletal muscle SR)) (UniProt P16960)

Row | Kd [1] | Kd [2] | Kd [3] | [^3H]ryanodine binding as an index of channel activity, 800 nM CaM, 30 nM Ca2+: increase [4] | Substance
1 | 12.6 nM | – | – | – | AF488-G1C-FKBP12.6 (natural protein)
2 | 7.3 nM | – | – | – | AF488-T6C-FKBP12.6 (natural protein)
3 | – | 1.6 nM | 4.9 nM | – | AF488-labeled E32C FKBP12.6 (null-cysteine background) (natural protein)
4 | – | 5 nM | – | – | AF488-labeled G1C FKBP12.6 (null-cysteine background) (natural protein)
5 | – | 3.7 nM | 4.7 nM | – | AF488-labeled K44C FKBP12.6 (null-cysteine background) (natural protein)
6 | – | 2.3 nM | 3.9 nM | – | AF488-labeled Q65C FKBP12.6 (null-cysteine background) (natural protein)
7 | – | 3.6 nM | 6.4 nM | – | AF488-labeled R49C FKBP12.6 (null-cysteine background) (natural protein)
8 | – | 2.7 nM | – | – | AF488-labeled T6C FKBP12.6 (null-cysteine background) (natural protein)
9 | – | 3.2 nM | 3.7 nM | – | AF488-labeled T14C FKBP12.6 (null-cysteine background) (natural protein)
10 | – | 1.9 nM | 5.8 nM | – | AF488-labeled T85C FKBP12.6 (null-cysteine background) (natural protein)
11 | – | – | – | 20 fold | unlabeled WT-CaM (from UniProt P0DP23 1-149) (natural protein)
